Experiments:
[1] = target: H1-mini2-cluster1+5+6-GCN4 without leader sequence and with FLAG-thrombin-foldon-HIS; assay: ELISA, coated CR6261, HEK293F culture medium; the reference itself
[2] = target: H1-mini2-cluster1+5+6-GCN4 without leader sequence and with FLAG-thrombin-foldon-HIS; assay: ELISA, coated CR6261, HEK293F culture medium; average of the parental
[3] = target: H1-mini2-cluster1+5+6-GCN4 without leader sequence and with FLAG-thrombin-foldon-HIS; assay: ELISA, coated CR6261, P. pastoris culture medium; the reference itself
[4] = target: H1-mini2-cluster1+5+6-GCN4 without leader sequence and with FLAG-thrombin-foldon-HIS; assay: ELISA, coated CR6261, P. pastoris culture medium; average of the parental

Q: How did the fold increase of ratio over parental SEQ ID NO: 6 [1] turn out when CR6261 (antibody) was run?
A: The fold increase of ratio over parental SEQ ID NO: 6 was 1 fold.

Q: And the CR6261 binding signal [2]?
A: The CR6261 binding signal was 5.66e+06.

Q: And the ratio of CR6261 binding signal to HTRF signal [2]?
A: Its ratio of CR6261 binding signal to HTRF signal is 17.4.

Q: What about the fold increase of ratio over parental SEQ ID NO: 6 [3] of the same substance?
A: Its fold increase of ratio over parental SEQ ID NO: 6 is 1 fold.

Q: What about the CR6261 binding signal [4] of the same substance?
A: The CR6261 binding signal was 238000.

Q: And the ratio of CR6261 binding signal to HTRF signal [4]?
A: Its ratio of CR6261 binding signal to HTRF signal is 5.94.

— patent US20170189519A1
